Tested on: C=C(OP(=O)(O)O)C(=O)O
Assay: purified protein
Conditions: Mg2+

Sequence of pyruvate kinase (PK-1 from rabbit muscle) (Oryctolagus cuniculus) (chain, as listed by the source): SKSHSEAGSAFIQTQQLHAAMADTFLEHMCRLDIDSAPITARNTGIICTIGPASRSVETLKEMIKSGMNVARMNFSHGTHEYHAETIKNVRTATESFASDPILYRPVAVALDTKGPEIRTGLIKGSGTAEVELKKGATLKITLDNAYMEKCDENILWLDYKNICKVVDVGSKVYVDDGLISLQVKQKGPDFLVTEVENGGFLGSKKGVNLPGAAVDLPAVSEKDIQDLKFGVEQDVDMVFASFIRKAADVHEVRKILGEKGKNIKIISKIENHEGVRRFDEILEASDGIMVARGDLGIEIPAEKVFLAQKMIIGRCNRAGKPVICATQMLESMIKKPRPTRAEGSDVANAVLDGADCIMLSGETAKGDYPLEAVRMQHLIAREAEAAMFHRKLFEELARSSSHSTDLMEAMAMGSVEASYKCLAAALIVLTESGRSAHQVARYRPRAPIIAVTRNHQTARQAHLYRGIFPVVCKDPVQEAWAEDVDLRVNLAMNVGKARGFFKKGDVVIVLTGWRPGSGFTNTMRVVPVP

“pyruvate kinase (PK-1 from rabbit muscle) (Oryctolagus cuniculus)” was tested, and the Km was 220 ± 20 µM.

— paper PMC4560413, “Ethyl Pyruvate Emerges as a Safe and Fast Acting Agent against Trypanosoma brucei by Targeting Pyruvate Kinase Activity” (PLoS ONE, 2015)
